Data taken from publication PMC9550759.

Biological target: high-affinity binding sites and low-affinity sites for VEGF165 on the SK-MEL-28 cell line (human (endogenous in SK-MEL-28))
Assay: radioligand binding; radio-receptor assay with [125I]-labeled VEGF165 on SK-MEL-28 cells; two classes of sites; data not shown

KD, high-affinity sites: 0.13 nM
KD, low-affinity sites: 4.1 nM
Substance: Recombinant Human VEGF165 (from UniProt P15692-4 1-191) (ligand)
